“And” between values parts separate entries of the source, which are not always exact repeats. Identical values can stand only once.
T1: DVL2 PDZ domain (PDZ_(265-361)), wt, 15N-labelled (human, UniProt O14641 265-361, 15N-labelled)
T1 construct: Dishevelled 2 (DVL2), human, PDZ domain, residues 265-361; Tag was followed by the linker ENLYFQS (TEV site); also called wt 15N-PDZ; minimal PDZ domain of DVL2; source: E. coli BL21-CodonPlus(DE3)-RIL, purified (NiNTA), Lip tag cleaved with TEV protease; not shown: His6, N-terminal, cleaved; Lip, N-terminal, cleaved
T1 sequence (looked up): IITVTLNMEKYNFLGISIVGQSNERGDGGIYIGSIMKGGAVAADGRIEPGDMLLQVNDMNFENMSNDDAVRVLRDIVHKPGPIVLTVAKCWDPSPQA


Legend:
[1] = molecular target: SNAP–FZD5 (UniProt Q13467); experiment: FZD5-dependent recruitment of DEP-GFP to the plasma membrane, cells scored by fluorescence microscopy; conditions: HEK293T cells, 100 cells scored in each case, read off a plot; for other: % of cells with no FZD5 recruitment: parent: est. 12; for other: % of cells with weak FZD5 recruitment: parent: est. 36; for other: % of cells with strong FZD5 recruitment: parent: est. 52
[2] = molecular target: T1, DVL2 PDZ domain (PDZ_(265-361)), wt, …; experiment: NMR titration; 1H-15N correlation spectra (fast-HSQC or BEST-TROSY) of 100 µM 15N-PDZ alone or with 3x molar excess (300 µM) of DVL-C or Lip–FZD peptide; 298 K, aqueous phosphate buffer at physiological ionic strength, pH 6.7; conditions: both partners purified
[3] = molecular target: the molecule itself; experiment: SEC-MALS; phosphate-buffered saline, GE Superdex S-200 10/300 analytical column; unfractionated purified Lip–DEP
[4] = molecular target: the molecule itself; experiment: SEC-MALS; not shown; tetramerisation of the K446M DEP domain

Sequence of SNAP–FZD5 (Q13467 27-585): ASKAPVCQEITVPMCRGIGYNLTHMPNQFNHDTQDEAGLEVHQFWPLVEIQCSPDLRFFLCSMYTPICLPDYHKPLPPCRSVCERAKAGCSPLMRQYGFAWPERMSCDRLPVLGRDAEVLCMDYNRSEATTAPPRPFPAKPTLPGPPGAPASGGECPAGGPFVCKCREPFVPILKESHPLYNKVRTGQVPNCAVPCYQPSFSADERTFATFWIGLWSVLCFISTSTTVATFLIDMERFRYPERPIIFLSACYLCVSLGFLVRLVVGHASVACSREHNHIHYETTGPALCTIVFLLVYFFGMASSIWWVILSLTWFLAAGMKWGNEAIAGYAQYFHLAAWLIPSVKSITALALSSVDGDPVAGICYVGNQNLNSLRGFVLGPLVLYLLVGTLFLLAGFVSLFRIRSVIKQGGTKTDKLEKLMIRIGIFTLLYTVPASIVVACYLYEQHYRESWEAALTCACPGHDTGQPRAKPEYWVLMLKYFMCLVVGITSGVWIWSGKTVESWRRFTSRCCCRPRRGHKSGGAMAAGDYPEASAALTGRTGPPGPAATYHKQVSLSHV

Row | Molecule | other: % of cells with no FZD5 recruitment [1] | other: % of cells with weak FZD5 recruitment [1] | other: % of cells with strong FZD5 recruitment [1] | stoichiometry N [3] | other results
1 | DEP–GFP, wt (minimal DEP domain of DVL2) (from UniProt O14641) L445E | 80 % of cells | 20 % of cells | – | – | –
2 | DEP–GFP, wt (minimal DEP domain of DVL2) (from UniProt O14641) I447T | 7 % of cells | 32 % of cells | 61 % of cells | – | –
3 | DEP–GFP, wt (minimal DEP domain of DVL2) (from UniProt O14641) I447F | 8 % of cells | 34 % of cells | 58 % of cells | – | –
4 | DEP–GFP, wt (minimal DEP domain of DVL2) (from UniProt O14641) I447M | 7 % of cells | 41 % of cells | 52 % of cells | – | –
5 | DEP–GFP, wt (minimal DEP domain of DVL2) (from UniProt O14641) K446M | 75 % of cells | 22 % of cells | 3 % of cells | – | –
6 | SEFFVDVM (C-terminal peptide of Dishevelled 1 (Dvl1); Lee et al., 2015; also called DVL-C peptide; source: kindly provided by Jie Zheng (University of California, Los Angeles)) [C-terminal peptide from Dvl1 (DVL-C)] | – | – | – | – | binding result [2]: binds
7 | Lip–DEP_(417-511), DVL2 DEP domain, wt (domain or fragment, human, UniProt O14641 417-511, looked up, Dishevelled 2 (DVL2), human, DEP domain, residues 417-511; Between the 6xHis-Lip tag and the domain stands the linker ENLYFQS (TEV site); also called wt DEP domain; DVL2 DEP_(417-511); source: E. coli BL21-CodonPlus(DE3)-RIL, purified (NiNTA); not shown: Lip, N-terminal, kept) LSVHTDMASVTKAMAAPESGLEVRDRMWLKITIPNAFLGSDVVDWLYHHVEGFPERREARKYASGLLKAGLIRHTVNKITFSEQCYYVFGDLSGG | – | – | – | 2 and 4 | –
8 | Lip–DEP_(417-511) I447T (domain or fragment, human, UniProt O14641 417-511, looked up, Dishevelled 2 (DVL2), human, DEP domain, residues 417-511, with I447T; also called tetramerisation mutant; source: E. coli BL21-CodonPlus(DE3)-RIL, purified (NiNTA)) LSVHTDMASVTKAMAAPESGLEVRDRMWLKTTIPNAFLGSDVVDWLYHHVEGFPERREARKYASGLLKAGLIRHTVNKITFSEQCYYVFGDLSGG | – | – | – | 2 | –
9 | Lip–DEP_(417-511) I447M (domain or fragment, human, UniProt O14641 417-511, looked up, Dishevelled 2 (DVL2), human, DEP domain, residues 417-511, with I447M; also called tetramerisation mutant; source: E. coli BL21-CodonPlus(DE3)-RIL, purified (NiNTA)) LSVHTDMASVTKAMAAPESGLEVRDRMWLKMTIPNAFLGSDVVDWLYHHVEGFPERREARKYASGLLKAGLIRHTVNKITFSEQCYYVFGDLSGG | – | – | – | 2 | –
10 | Lip–DEP_(417-511) I447F (domain or fragment, human, UniProt O14641 417-511, looked up, Dishevelled 2 (DVL2), human, DEP domain, residues 417-511, with I447F; also called tetramerisation mutant; source: E. coli BL21-CodonPlus(DE3)-RIL, purified (NiNTA)) LSVHTDMASVTKAMAAPESGLEVRDRMWLKFTIPNAFLGSDVVDWLYHHVEGFPERREARKYASGLLKAGLIRHTVNKITFSEQCYYVFGDLSGG | – | – | – | 2 | –
11 | Lip–DEP_(417-511) K446M (domain or fragment, human, UniProt O14641 417-511, looked up, Dishevelled 2 (DVL2), human, DEP domain, residues 417-511, with K446M; source: E. coli BL21-CodonPlus(DE3)-RIL, purified (NiNTA)) LSVHTDMASVTKAMAAPESGLEVRDRMWLMITIPNAFLGSDVVDWLYHHVEGFPERREARKYASGLLKAGLIRHTVNKITFSEQCYYVFGDLSGG | – | – | – | – | stoichiometry N [4]: 4

— paper PMC5087658, “Essential role of the Dishevelled DEP domain in a Wnt-dependent human-cell-based complementation assay” (Journal of Cell Science, 2016)
